For assay [1], the target named is T1, murine VEGF (form not stated) (mouse, UniProt Q00731-2 27-190).
T1 construct: also called mVEGF
T1 sequence (looked up): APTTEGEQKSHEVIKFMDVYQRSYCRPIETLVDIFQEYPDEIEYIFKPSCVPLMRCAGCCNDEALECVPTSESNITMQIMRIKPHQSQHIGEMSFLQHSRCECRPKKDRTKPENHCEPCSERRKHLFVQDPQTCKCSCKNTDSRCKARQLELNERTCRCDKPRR
Briefly: BIAcore SPR, mVEGF108.

The target of assay [2] is T2, human VEGF109 (human, UniProt P15692 214-315, limits assumed).
T2 construct: also called hVEGF109
T2 sequence (looked up): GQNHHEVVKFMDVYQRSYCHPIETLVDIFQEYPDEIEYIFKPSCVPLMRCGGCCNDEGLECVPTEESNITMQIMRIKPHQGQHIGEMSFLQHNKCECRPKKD
The assay can be described thus: BIAcore SPR.

The target in assay [3] is T3, human VEGF (form not stated) (human, UniProt P15692-4 27-191).
T3 construct: also called hVEGF; hVEGF-A
The assay can be described thus: competitive phage ELISA. For orientation: ELISA stands for enzyme-linked immunosorbent assay.

Assay [4] concerns the target T3, human VEGF (form not stated). Briefly: competitive phage ELISA. This is another data set of the same source.
In assay [5] the target is T2, human VEGF109. Briefly: BIAcore SPR, steady state analysis.
Assay [6] concerns the target T4, HER2 extracellular domain (human, UniProt P04626 23-652).
T4 construct: extracellular domain; also called HER2-ECD; Her2-ECD
Briefly: BIAcore SPR. Background: In SPR one partner is held on a chip, and binding of the other changes the refractive index at the surface.

The target in assay [7] is T4, HER2 extracellular domain. Briefly: competitive phage ELISA.
Assay [8] addresses T3, human VEGF (form not stated). The assay can be described thus: competitive phage ELISA. The source holds these as a separate data set.
Assay [9] deals with T4, HER2 extracellular domain. Briefly: competition ELISA of phage-displayed Fab.
The target of assay [10] is T2, human VEGF109. Briefly: SPR, captured IgG, antigen in solution, 30°C.
Another assay deals with T5, human death receptor 5 (human, UniProt O14763 56-210).
T5 construct: also called hDR5; DR5
Briefly: ELISA: antigen immobilized, hIgG 15 µg/mL, OD450; bars assigned by their left-to-right order.

The target of a further assay is T6, HER3 ECD.
T6 construct: also called ErbB3/HER3 extracellular domain
The description is as above.

In assay [11] the target is T7, hVEGF-D (human, UniProt O43915 93-201).
T7 construct: also called vascular endothelial growth factor D
T7 sequence (looked up): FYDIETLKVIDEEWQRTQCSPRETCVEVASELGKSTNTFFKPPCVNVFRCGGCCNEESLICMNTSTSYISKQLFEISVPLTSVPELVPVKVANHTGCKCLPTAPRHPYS
The assay is described as above.

Assay [12] deals with T8, epidermal growth factor receptor extracellular domain (human, UniProt P00533 25-645).
T8 construct: extracellular domain; also called hEGFR
The assay is described as above.

Assay [13] deals with T9, hVEGF-C (human, UniProt P49767 103-227).
T9 construct: also called vascular endothelial growth factor C
T9 sequence (looked up): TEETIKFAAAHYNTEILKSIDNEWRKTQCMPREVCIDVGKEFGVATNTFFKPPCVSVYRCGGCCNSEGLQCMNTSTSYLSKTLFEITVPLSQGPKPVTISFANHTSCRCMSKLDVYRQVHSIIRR
Described as above.

The target of the next assay is T10, bovine serum albumin (bovine, UniProt P02769 25-607).
T10 construct: also called BSA
Described as above.

Assay [14] has as its target T7, hVEGF-D. Briefly: ELISA.
Assay [15] addresses T9, hVEGF-C. The assay can be described thus: ELISA.
Assay [16] addresses T4, HER2 extracellular domain. The assay can be described thus: Her2 in solution (varied) against DR5 coat.

The Kd is the constant that tells how readily two partners part at equilibrium. For orientation: koff means a measure of how fast the partners let go of each other. The low end stands for slow dissociation, the high end for fast dissociation. One may read the kon as the second-order rate constant of association. In general, IC50 refers to the concentration that gives 50% inhibition. High values mean a need for much substance, low ones inhibition by little substance.

Values joined by “and” are separate entries in the source; they are usually repeats but may differ in a detail not shown here. Identical values can stand only once. Like-named read-outs stand apart in the source and are kept apart here.

B1: 3_7 Fab (Fab, V domains shown)
VH: not shown
VL: DIQMTQSPSSLSASVGDRVTITCRASQYIWRYVAWYQQKPGKAPKLLIYWGSSLYSGVPSRFSGSGSGTDFTLTISSLQPEDFATYYCQQGLWYSPPTFGQGTKVEIK
For B1, in assay [1], the Kd was determined as 78 nM, the koff was 0.0056 s⁻¹ and the kon turned out to be 72000 M⁻¹ s⁻¹. In the assay with human VEGF109 [2], this molecule yielded a Kd of 3 nM, a koff of 0.0025 s⁻¹ and a kon of 800000 M⁻¹ s⁻¹.

B2: H7 (scFv, V domains shown)
VH: not shown
VL: DIQMTQSPSSLSASVGDRVTITCRASQNVWDWVAWYQQKPGKAPKLLIYPASSLYSGVPSRFSGSGSGTDFTLTISSLQPEDFATYYCQQGWYIAPPTFGQGTKVEIK
notes: not shown: scFv linker carrying the gD tag and the phage coat fusion
In assay [3], B2 yielded an IC50 of 60 nM.

B3: 3-7 (phage) (scFv, V domains shown, not shown: large carriers; small tags and cut ends)
VH: not shown
VL: DIQMTQSPSSLSASVGDRVTITCRASQYIWRYVAWYQQKPGKAPKLLIYWGSSLYSGVPSRFSGSGSGTDFTLTISSLQPEDFATYYCQQGLWYSPPTFGQGTKVEIK
Molecule B3 returned an IC50 in [4] of 16 nM.

B4: 3-7 hIgG (antibody, V domains shown)
VH: not shown
VL: DIQMTQSPSSLSASVGDRVTITCRASQYIWRYVAWYQQKPGKAPKLLIYWGSSLYSGVPSRFSGSGSGTDFTLTISSLQPEDFATYYCQQGLWYSPPTFGQGTKVEIK
notes: also called 3-7 anti-hVEGF
In [1], B4 registered a Kd of 30 nM, a koff of 0.015 s⁻¹ and a kon of 500000 M⁻¹ s⁻¹. In the assay with human VEGF109 [2], the Kd is 7 nM, the koff stood at 0.0042 s⁻¹ and the kon was found to be 580000 M⁻¹ s⁻¹.

B5: 3-4 (phage) (scFv, V domains shown, not shown: large carriers; small tags and cut ends)
VH: not shown
VL: DIQMTQSPSSLSASVGDRVTITCRASQEVYSYVAWYQQKPGKAPKLLIYPASSLYSGVPSRFSGSGSGTDFTLTISSLQPEDFATYYCQQGFWIGPPTFGQGTKVEIK
notes: also called c3-4
B5 came in with an IC50 in assay [4] of 32 nM.

B6: H4_N (bispecific antibody, V domains shown)
VH: not shown
VL: DIQMTQSPSSLSASVGDRVTITCRASQNIRSGSVAWYQQKPGKAPKLLIYWASYLYSGVPSRFSGSGSGTDFTLTISSLQPEDFATYYCQQHYTTPPTFGQGTKVEIK
notes: also called H4_N hIgG; H4_N Fab
Consider B6, for which the Kd with human VEGF109 [5] worked out at 550 nM. In assay [6], the Kd is 9.87 nM and 6 nM; the koff amounted to 0.0013 s⁻¹; the kon is 140000 M⁻¹ s⁻¹ and 230000 M⁻¹ s⁻¹.

B7: H4 (phage) (scFv, V domains shown)
VH: not shown
VL: DIQMTQSPSSLSASVGDRVTITCRASQNIRTGSVAWYQQKPGKAPKLLIYWGSYLYSGVPSRFSGSGSGTDFTLTISSLQPEDFATYYCQQHYTTPPTFGQGTKVEIK
On to B7, for which the IC50 in assay [7] is 0.54 nM; in [8] it was 115 nM.

B8: 20.49 (Fab, V domains shown)
VH: not shown
VL: DIQMTQSPSSLSASVGDRVTITCRASVDLPKSVSGYVAWYQQKPGKAPKLLIYWGSFLYSGVPSRFSGSGSGTDFTLTISSLQPEDFATYYCQQHFTSPPTFGQGTKVEIKR
With B8, the IC50 in assay [9] turned out to be 2.6 nM.

B9: 35.95 (Fab, V domains shown)
VH: not shown
VL: DIQMTQSPSSLSASVGDRVTITCRAIENLPKSVSGYVAWYQQKPGKAPKLLIYWGSFLYSGVPSRFSGSGSGTDFTLTISSLQPEDFATYYCQQHYTSPPTFGQGTKVEIKR
Turning to B9, the half-inhibitory concentration (IC50) in [9] stood at 4.3 nM.

B10: 20.80 (Fab, V domains shown)
VH: not shown
VL: DIQMTQSPSSLSASVGDRVTITCRASEDIPKSISGYVAWYQQKPGKAPKLLIYWGSFLYSGVPSRFSGSGSGTDFTLTISSLQPEDFATYYCQQHFSSPPTFGQGTKVEIKR
B10 returned an IC50 in [9] of 2.2 nM.

B11: bH1-81 IgG (bispecific antibody, V domains shown)
VH: not shown
VL: DIQMTQSPSSLSASVGDRVTITCRASQNIAKTISGYVAWYQQKPGKAPKLLIYWGSFLYSGVPSRFSGSGSGTDFTLTISSLQPEDFATYYCQQHYSSPPTFGQGTKVEIKR
notes: also called bH1-81 antibody; not shown: rest of the human IgG heavy-chain constant region
In turn, B11 showed a Kd with human VEGF109 [10] of 41 nM. For the same molecule, the binding result (with human death receptor 5; with HER3 ECD; with hVEGF-D [11]; in [12]; with hVEGF-C [13]; with bovine serum albumin) was “no binding (tested: 15 µg/mL)” throughout.

B12: 35.45 (Fab, V domains shown)
VH: not shown
VL: DIQMTQSPSSLSASVGDRVTITCRASEDIPKTVSGYVAWYQQKPGKAPKLLIYWGSFLYSGVPSRFSGSGSGTDFTLTISSLQPEDFATYYCQQHFSSPPTFGQGTKVEIKR
In assay [9], B12 came in with an IC50 of 1.1 nM.

B13: 35.74 (Fab, V domains shown)
VH: not shown
VL: DIQMTQSPSSLSASVGDRVTITCRAIQDIPKTITGYVAWYQQKPGKAPKLLIYWGSFLYSGVPSRFSGSGSGTDFTLTISSLQPEDFATYYCQQHFNSPPKFGQGTKVEIK
With B13, in [9], the IC50 was 0.7 nM.

B14: 3-1 (Table 2) (Fab, V domains shown)
VH: not shown
VL: DIQMTQSPSSLSASVGDRVTITCRASQNVWDWVAWYQQKPGKAPKLLIYPASSLYSGVPSRFSGSGSGTDFTLTISSLQPEDFATYYCQQGWYIAPPTFGQGTKVEIKR
notes: also called 3-1 Fab
With B14, in [1], binding was characterised by a dissociation constant (Kd) of 105 nM and the off-rate constant (koff) is 0.0036 s⁻¹. Further, the binding result in assay [6] is “no binding”.

B15: 3-1 hIgG (antibody, V domains shown)
VH: not shown
VL: DIQMTQSPSSLSASVGDRVTITCRASQNVWDWVAWYQQKPGKAPKLLIYPASSLYSGVPSRFSGSGSGTDFTLTISSLQPEDFATYYCQQGWYIAPPTFGQGTKVEIKR
notes: also called 3-1 IgG; not shown: rest of the human IgG heavy-chain constant region
On to B15, for which the binding result with hVEGF-D [14] is listed as “no binding”; with hVEGF-C [15] it was “no binding”; in [6] it was “no binding”; in the assay with human death receptor 5, “no binding (tested: 15 µg/mL)”; in [12] it was “no binding (tested: 15 µg/mL)”; with bovine serum albumin it was “no binding (tested: 15 µg/mL)”. This molecule returned a Kd in assay [1] of 44 nM. In addition, in [1], the koff was determined as 0.016 s⁻¹.

B16: D1 hIgG (bispecific antibody, V domains shown)
VH: not shown
VL: DIQMTQSPSSLSASVGDRVTITCRASQNVSKHVAWYQQKPGKAPKLLIYWGSYLYSGVPSRFSGSGSGTDFTLTISSLQPEDFATYYCQQSYSGPPTFGQGTKVEIK
notes: also called D1 (anti-hDR5/Her2)
As for B16, the “IC50 (read off the curve)” value in assay [16] is about 50 nM.

Values taken from patent US20100322946A1 (Genentech, published 2010).
